Test results taken from the supplement of paper PMC12042874.
± gives the uncertainty stated by the source.

Assay: amyloid nucleation score (Sup35N fusion, yeast selection) (log enrichment); library NNK3; higher = more nucleation; inactive = no reads after selection
Summary of the method: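 Sup35N fusions to peptides of 20 random codons were expressed in psi-negative yeast, induced 24 hours with 100 μM copper sulfate, and grown 7 days at 30°C on medium lacking adenine and uracil. Input and output plasmid inserts were sequenced by Illumina. The nucleation score is the DiMSum log enrichment of output over input reads, centred on the mode score of non-aggregating sequences. Sequences with under 100 input reads were excluded.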

Substance | amyloid nucleation score
WNPFGRGWLTLPNMFHKTVI | inactive
AANPFFTIYHLVRSYNVCRW | inactive
SFSCMKDSGPNMCKGLRVKQ | inactive
FDTYTLSNTF | inactive
NFYYSSAFLSVLFPFSACFP | 2.22 ± 0.084
REGRVLVWYSYYKFYTRHYF | 0.004 ± 0.72
FSNVRDFGFGKDY | inactive
ALWWKRGVNMRNPSETRLAM | inactive
AWNLS | inactive
SYYVICGTLMIIVVYFSSYN | 1.02 ± 0.093
MLGDLAYCGYMSSAGVGSLI | inactive
LIIGHVFGFHGYVDWDDGTC | inactive
SNCNPEWQLLIMIDCYNYAL | inactive
RLMYKMMHVSGDEECLFVMV | inactive
RFSCCYRPLLYNQKVEWWRG | inactive
DQSNSSEGILCYNLCVLMTE | 2.43 ± 0.072
RQFCSQLICSIMVYVCLCGI | inactive
DYALALVFAYCYEDNRMCCP | inactive
HHYLTHNRLVIKHHYRKYYD | inactive
KSFWVHMTGAFVCARYWCLP | 0.97 ± 0.17
VRRVQSLRPPAHVSLAPYRA | inactive
SYPGRLYSSGYDCVYSNRSR | inactive
YHGCPERVWLSA | inactive
DGLQSN | inactive

Substance | amyloid nucleation score
FIITPTYIICQRLFY | inactive
NWPGMLFNLSLVERRSWRRN | inactive
ADVNTL | inactive
SPRNMWI | inactive
RRNEFVLWYLGDTSWYVWFS | 0.268 ± 0.27
REMFASPSIGTALRR | inactive
NLVTVLIISRWGAGLR | 1.17 ± 0.17
CSMLASMWTTIRYLLLLEVA | 1.49 ± 0.09
YNRKWDMQY | inactive
GGNVCRGVKIIVMWAMIFVM | inactive
LSSSGIMFCFFVDGLRSLV | inactive
QTAFQRL | inactive
RWIFIT | inactive
NWSVHTGIDKVKADDGEFQL | inactive
RSRKKRCFLKFILKNFVWSV | inactive
EGWIRVFTEFNFSS | 0.263 ± 0.46
AIYKGSWEPFGIDA | inactive
SYMISPAVGKDRDM | inactive
AYFIPYNTWFYKKGMARQFF | inactive
IKDGFQGNVFFAVDCFVAYD | inactive
SSDTGRCIKVDALRCRMGSR | inactive
YRKWGCWHRTFRLIYCTVVL | inactive
TSLASNFANVTSVTCY | -0.679 ± 1
YLEEARQYNLQRYWKDLKVL | inactive

Substance | amyloid nucleation score
TLYVFWCEQFKRAYWLYVSK | inactive
VFFMNYGHVIVHFEKFFGGN | 2.6 ± 0.082
VRWWWLNF | inactive
LRWFFVHPQWIRGCGLAMLS | inactive
YVAVGKKLNHRSSSSLSRFF | inactive
RSTWMAIWKERYMQTGFL | inactive
KATWSCLHLATHSASPCQSA | inactive
DRILAYKTYLGNYLLVVLYN | inactive
LHDNRHYGNLTEAL | inactive
KSGTCK | inactive
CYMVEDRRIDSRSAVSWRYV | inactive
IGYVMFGTSSSAFRITYISK | inactive
VYGVTSHCTVRRELWAGSIM | inactive
RSGWS | inactive
GIYRYVQGWHDAPHGGNCTE | inactive
CVYIDGSIAVGWYMKFILTF | inactive
RRLLSKGVKIVRLISDEVYC | inactive
IDGWRGELVMTYN | 0.025 ± 0.48
RYYCMYSSGEIRCSVSWGVW | inactive
RTFMYMWRSEIF | inactive
KSFRIMMLRSWMLRLLKYQL | inactive
NTLKSV | inactive
MAYLNLVQV | inactive
SLGSCFSTCAVVHQRMKLGG | inactive

Substance | amyloid nucleation score
HVSVFMCLCTVDTR | 1.33 ± 0.078
RRKRYCISDLA | inactive
RKNVELANPLFTSPWLNIMY | inactive
MVTLKQYLYSG | 1.05 ± 0.2
IFACVLHVVTW | inactive
RLIYHRQFFRE | inactive
WMHRAYWLSGVCRVLQVTNL | inactive
SSGKFIVLGRNAWTLAWTLT | inactive
VIRVLQPFDCGCILYSCLIS | inactive
YLVQNFKT | -0.401 ± 0.6
SFNNACVFYMNSWLRWRI | 1.96 ± 0.083
CVTYSYCYCQANHFHCRCQQ | 2.88 ± 0.062
FNILSLSRTSNYPRHCLFRL | inactive
PVVTMLYLTSIVSSSGHGSY | 0.898 ± 0.11
ANAFTGIRCVQVRRRCSLDM | inactive
FRITNWLSLYDKTEISHASI | inactive
AFKDNNDCLEHCCRRVTDLV | inactive
RYNRA | inactive
CFVAGYRSIGLLRFITIFCV | inactive
VDNIVVVCCFKDNCLSKG | 1.85 ± 0.09
TVSIKSAHATRTQVVPNMSF | inactive
KYVVQPYGSCRWGLITVRAN | inactive
NIVLFGKRVNFFYLTNDVVK | 1.97 ± 0.067
KRSSA | inactive

Substance | amyloid nucleation score
SDYSLYWFK | inactive
HCGWMAFFISLAPQFVYVLI | inactive
KMGTRGWLSDIAGNMVYVLC | inactive
CGVSLDRWSNMQ | inactive
FISPVL | inactive
YGMSTG | inactive
HYYNSHSWATTTT | inactive
RYTTY | inactive
TFRLILILRTSI | 0.898 ± 0.16
CNFNLILLMDGIKGSFL | 2.35 ± 0.065
VNDVLIRKCLAMESNVNEAI | inactive
VYDWRGRVGD | inactive
LSYQDVWGSYGICEGSVWYS | inactive
AWKTFFVIYSS | 0.406 ± 0.19
PFTACWVSVADNPYPSNKTG | inactive
DGDYL | inactive
SSKSWLRYRVDEHTVSTFGF | inactive
FLRYGCMHYLGRMGLY | -0.079 ± 0.34
CLCSTRVRGSFPPDSTVHNF | inactive
SLYWSAMRKYNVVRTIYSRW | inactive
TISPFLINMFWLSCTLMSQE | 0.558 ± 0.16
VANIFVVISIVGVDTRLFIV | 0.519 ± 0.23
